Laboratory results taken from patent US11986450B2, “Methods and compositions for treating infection and inflammation with selenocyanate” (National Jewish Health, priority 2017, dated 2024).

Substrate: N#CSO
Test: Kinetic analysis of HOSCN metabolism
Assay type: biochemical
Conditions: other: recombinant mouse Sec-TrxR
Text: FIGS. 3A-3B. Kinetic analysis of HOSCN metabolism by recombinant mouse Sec-TrxR and recombinant E. coli Cys-TrxR. […] Sec-TrxR forms that lack a selenocysteine (Sec489Cys) or truncated by the last 8 amino acids (D8) had diminished activity.

B1: recombinant mouse Sec-TrxR (Mus musculus) (protein)
chain: GGQQSFDLLVIGGGSGGLACAKEAAQLGKKVAVADYVEPSPRGTKWGLGGTCVNVGCIPKKLMHQAALLGGMIRDAHHYGWEVAQPVQHNWKTMAEAVQNHVKSLNWGHRVQLQDRKVKYFNIKASFVDEHTVRGVDKGGKATLLSAEHIVIATGGRPRYPTQVKGALEYGITSDDIFWLKESPGKTLVVGASYVALECAGFLTGIGLDTTVMMRSIPLRGFDQQMSSLVTEHMESHGTQFLKGCVPSHIKKLPTNQLQVTWEDHASGKEDTGTFDTVLWAIGRVPETRTLNLEKAGISTNPKNQKIIVDAQEATSVPHIYAIGDVAEGRPELTPTAIKAGKLLAQRLFGKSSTLMDYSNVPTTVFTPLEYGCVGLSEEEAVALHGQEHVEVYHAYYKPLEFTVADRDASQCYIKMVCMREPPQLVLGLHFLGPNAGEVTQGFALGIKCGASYAQVMQTVGIHPTCSEEVVKLHISKRSGLEPTVTGCUG
- Km: 30 µM
